Laboratory results reported in PMC5480026.

Experiments:
[1] = molecular target: T1, hIFNγ receptor hIFNGR1 (human (endogenous in WISH)) (UniProt P15260)
T1 sequence: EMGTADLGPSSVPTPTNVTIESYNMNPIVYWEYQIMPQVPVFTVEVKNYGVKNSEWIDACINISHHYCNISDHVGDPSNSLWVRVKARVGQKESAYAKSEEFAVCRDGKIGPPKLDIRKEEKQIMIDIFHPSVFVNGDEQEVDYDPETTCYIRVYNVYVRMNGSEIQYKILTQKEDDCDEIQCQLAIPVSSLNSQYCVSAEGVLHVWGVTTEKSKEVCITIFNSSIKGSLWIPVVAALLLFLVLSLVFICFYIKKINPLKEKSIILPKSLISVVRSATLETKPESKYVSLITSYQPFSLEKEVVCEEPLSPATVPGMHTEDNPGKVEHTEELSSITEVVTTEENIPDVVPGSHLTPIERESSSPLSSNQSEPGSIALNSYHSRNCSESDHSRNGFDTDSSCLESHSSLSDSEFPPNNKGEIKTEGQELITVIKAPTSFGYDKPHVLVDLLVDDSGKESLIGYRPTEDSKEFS

[2] = molecular target: T1, hIFNγ receptor hIFNGR1 (human (endogenous in WISH)); remark: listed apart in the source

biological activity, kynurenine bioassay on WISH cells [1] [times lower]	specific biological activity after tag removal, kynurenine bioassay on WISH cells [2] [IU/mg]	Substance
100	–	His6-FLAG-K88Q fusion protein expressed in E. coli (from UniProt P01579 24-161) (ligand)
100	–	His6-FLAG-hIFNγ fusion protein expressed in E. coli (from UniProt P01579 24-161) (ligand)
–	3e+07	human interferon-gamma (hIFNγ), tag-free after enterokinase removal of the His6-FLAG tag (from UniProt P01579 24-161) (ligand)
